Drawing on paper PMC3728988, “Kinetic mechanism of the dimeric ATP sulfurylase from plants” (Bioscience Reports, 2013), this text covers Ki and Km for two molecules.

Data set [1] concerns the target T1, soybean ATP sulfurylase isoform 1 (GmATPS1) (Glycine max, UniProt Q8SAG1).
T1 construct: homodimer
T1 sequence (Q8SAG1 49-462): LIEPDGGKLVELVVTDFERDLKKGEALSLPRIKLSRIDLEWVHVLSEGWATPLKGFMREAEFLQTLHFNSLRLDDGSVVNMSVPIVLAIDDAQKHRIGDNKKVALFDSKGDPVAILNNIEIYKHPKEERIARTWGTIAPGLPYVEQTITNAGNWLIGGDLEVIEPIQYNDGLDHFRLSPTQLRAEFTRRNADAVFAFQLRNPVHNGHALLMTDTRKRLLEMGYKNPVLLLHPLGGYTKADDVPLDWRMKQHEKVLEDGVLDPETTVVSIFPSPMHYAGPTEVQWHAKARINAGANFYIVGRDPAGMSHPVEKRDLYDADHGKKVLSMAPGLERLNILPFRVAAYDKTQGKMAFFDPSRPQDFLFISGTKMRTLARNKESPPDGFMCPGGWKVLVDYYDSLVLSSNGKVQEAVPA
In words: dead-end inhibition kinetics, coupled spectrophotometric assay of APS synthesis. It counts as biochemical.

Substrate in data set [2]: O=S(=O)(O)O
Kind of data set: purified protein. Conditions: ATP, Mg2+ binds after ATP; chlorate competes with it.

Substrate in data set [3]: Nc1ncnc2c1ncn2[C@@H]1O[C@H](COP(=O)(O)OP(=O)(O)OP(=O)(O)O)[C@@H](O)[C@H]1O
Kind of data set: purified protein. Conditions: Mg2+ binds first in the forward reaction.

The Ki is the equilibrium dissociation constant of an inhibitor or competing ligand from its target. A low value points to tighter binding. As a reminder, the Km is the substrate concentration at which the rate is half of its maximum.

Turning to `[O-][Cl+2]([O-])O` [chlorate], in data set [1], the Ki stood at 103 ± 19 µM.

B1: soybean ATP sulfurylase isoform 1 (GmATPS1) (Glycine max) (protein)
chain: LIEPDGGKLVELVVTDFERDLKKGEALSLPRIKLSRIDLEWVHVLSEGWATPLKGFMREAEFLQTLHFNSLRLDDGSVVNMSVPIVLAIDDAQKHRIGDNKKVALFDSKGDPVAILNNIEIYKHPKEERIARTWGTIAPGLPYVEQTITNAGNWLIGGDLEVIEPIQYNDGLDHFRLSPTQLRAEFTRRNADAVFAFQLRNPVHNGHALLMTDTRKRLLEMGYKNPVLLLHPLGGYTKADDVPLDWRMKQHEKVLEDGVLDPETTVVSIFPSPMHYAGPTEVQWHAKARINAGANFYIVGRDPAGMSHPVEKRDLYDADHGKKVLSMAPGLERLNILPFRVAAYDKTQGKMAFFDPSRPQDFLFISGTKMRTLARNKESPPDGFMCPGGWKVLVDYYDSLVLSSNGKVQEAVPA
For B1, the Km in “purified protein [2]” is 1,030±280 μM; in the data set “purified protein [3]” it was 221 ± 41 µM.
